Measurements published in paper PMC8317952.
Several values for one entry are separate records, joined by “and”; a condition that tells them apart may be missing. Equal entries are not always repeated.

Experiments:
[1] = substrate: CCCCCCCCCCCCCCCC(=O)O; experiment: Steady-state NADPH oxidation; format: biochemical, Bacillus megaterium; conditions: other: rates of NADPH oxidation, hyperbolic fit, 23 °C, pH 7.4
[2] = substrate: CCCCCCCCCCCCCCOS(=O)(=O)O; experiment: Steady-state NADPH oxidation; format: biochemical, Bacillus megaterium; conditions: other: rates of NADPH oxidation, 23 °C, pH 7.4

B1: P450BM-3 (Priestia megaterium NBRC 15308 = ATCC 14581) (protein)
chain: MTIKEMPQPKTFGELKNLPLLNTDKPVQALMKIADELGEIFKFEAPGRVTRYLSSQRLIKEACDESRFDKNLSQALKFVRDFAGDGLFTSWTHEKNWKKAHNILLPSFSQQAMKGYHAMMVDIAVQLVQKWERLNADEHIEVPEDMTRLTLDTIGLCGFNYRFNSFYRDQPHPFITSMVRALDEAMNKLQRANPDDPAYDENKRQFQEDIKVMNDLVDKIIADRKASGEQSDDLLTHMLNGKDPETGEPLDDENIRYQIITFLIAGHETTSGLLSFALYFLVKNPHVLQKAAEEAARVLVDPVPSYKQVKQLKYVGMVLNEALRLWPTAPAFSLYAKEDTVLGGEYPLEKGDELMVLIPQLHRDKTIWGDDVEEFRPERFENPSAIPQHAFKPFGNGQRACIGQQFALHEATLVLGMMLKHFDFEDHTNYELDIKETLTLKPEGFVVKAKSKKIPLGGIPSPSTEQSAKKVRKKAENAHNTPLLVLYGSNMGTAEGTARDLADIAMSKGFAPQVATLDSHAGNLPREGAVLIVTASYNGHPPDNAKQFVDWLDQASADEVKGVRYSVFGCGDKNWATTYQKVPAFIDETLAAKGAENIADRGEADASDDFEGTYEEWREHMWSDVAAYFNLDIENSEDNKSTLSLQFVDSAADMPLAKMHGAFSTNVVASKELQQPGSARSTRHLEIELPKEASYQEGDHLGVIPRNYEGIVNRVTARFGLDASQQIRLEAEEEKLAHLPLAKTVSVEELLQYVELQDPVTRTQLRAMAAKTVCPPHKVELEALLEKQAYKEQVLAKRLTMLELLEKYPACEMKFSEFIALLPSIRPRYYSISSSPRVDEKQASITVSVVSGEAWSGYGEYKGIASNYLAELQEGDTITCFISTPQSEFTLPKDPETPLIMVGPGTGVAPFRGFVQARKQLKEQGQSLGEAHLYFGCRSPHEDYLYQEELENAQSEGIITLHTAFSRMPNQPKTYVQHVMEQDGKKLIELLDQGAHFYICGDGSQMAPAVEATLMKSYADVHQVSEADARLWLQQLEEKGRYAKDVWAG
[1]
  Km: 67 ± 8 µM
[2]
  kcat/Km: 7.7e+06 M⁻¹ s⁻¹ and 3e+06 M⁻¹ s⁻¹
[2]; hyperbolic fit
  Km: 4.2 ± 0.6 µM
  kcat: 32.33 s⁻¹
  kcat/Km: 7.67e+06 ± 1e+06 M⁻¹ s⁻¹
